# Data taken from US10745461B2, “Pulsed introduction of low-dose RANKL as a therapy for diet-induced atherosclerosis” (Saint Louis University, priority 2015, dated 2020).
# “Also recorded” adds a separate entry of the source.
# Experiments:
# ovariectomized mice = test: Kinetics of a single low-dose RANKL treatment followed by serum CTX; type: in vivo; settings: twice 24 hrs apart, 2 weeks post-OVX
# Procedure: Food was withdrawn 6 to 10 hours prior to bleeding. Peripheral blood (100 to 200 μL) obtained via sub-mandibular vein, was allowed to clot for 2 hours at room temperature and serum collected by spinning down the cell pellet. Serum C-terminal telopeptide of type 1 collagen (serum CTX) was measured using ELISA according to the manufacturer's instructions (Immunodiagnostic Systems, Plc)
# To assess the kinetics of a single treatment, C57BL/6J ovariectomized mice were treated with low-dose RANKL (administered twice 24 hrs apart, 2 weeks post-OVX) and then followed by serum CTX assay. […] In FIG. 11B, to assess whether multiple treatments are effective, sham-operated (Sx) or OVX 12-week old C57BL/6J mice were treated with low-dose RANKL (0.125 mg/kg) once per month or once with the bisphosphonate Zoledronate (ZA; 3 weeks post-OVX). 120 days post-OVX peripheral blood obtained by mandible bleeds was treated to remove RBCs (BD Pharmalyse) then 1 to 3×10^6 cells were plated per well in triplicate (6 mice/group). Media was collected after 36 hours of culturing and cytokine levels quantitated by multiplexed ELISA (Millipore).
# [1] = test system: FoxP3 induction in OT-I CD8 T-cells by osteoclasts; test: TcREG (FoxP3) induction in OT-I CD8 T-cells co-cultured with bone marrow-derived osteoclasts; type: cell-based, mice; settings: 10 ng/ml or 20 ng/ml TNFα, OVA
# Procedure: It was also determined that IL-17 and TNFα suppresses TcREG induction by osteoclasts. […] Another possibility is that loss of estrogen leads to increased production of the pro-inflammatory cytokines by T-cells that increase osteoclast activity. Without being limited to any method of operation, it is actually expected that in the presence of pro-inflammatory cytokines osteoclasts fail to induce TcREG. As estrogen depletion lead to greater number of osteoclasts because of a decreased Fas ligand expression, the loss of TcREG induction and increased osteoclast numbers would tip the balance towards increased osteoclast resorption and net bone loss. To test fir this possibility, OC-iTcREG induction was measured in the presence of IL-17 and TNFα. […] To understand the underlying mechanism of how TNFα affects osteoclasts' ability to induce TcREG, the signals provided by osteoclasts to induce FoxP3 in the CD8 T-cells were investigated along with if these signals were affected by […].
# The most common and well-studied costimulatory signals on antigen-presenting cells are CD80 (B7.1) and CD86 (B7.2). As CD80/CD86 double knockout mice are commercially available, osteoclasts were generated from bone marrow precursors of these mice. The CD80/CD86 null osteoclasts (as well as wild-type controls) were then used to prime OT-I T-cells in the presence and absence of antigen. […] OT-I CD8 T-cells activated by CD80/CD86 null osteoclasts produced IL-6, IL-2 and IFN-γ to levels indistinguishable from wild-type mice (FIG. 4B). Having ruled out CD80/CD86 as the costimulatory molecules, an osteoclast microarray dataset was queried for other costimulatory molecules expressed by osteoclasts. Osteoclasts that express CD200 and c-Mer were found. The role of CD200 was chosen for testing based on the phenotype of CD200^−/− mice and the reported role for CD200 in regulating TcREG.
# The most, well characterized regulator of FoxP3 in T-cells is TGFβ. It has been previously shown that neutralization or addition of TGFβ has no effect on the induction of TcREG. Therefore identification of other pathways that can regulate the FoxP3 promoter in T-cells was sought. A number of previous studies have identified that the Notch signaling contributes to FoxP3 induction. To test if Notch signaling is important for TcREG induction by osteoclasts, the γ-Secretase inhibitor DAPT was initially used. Ligation of the Notch receptor by its ligand leads to cleavage of Notch by γ-secretase. […] Next, we identified the Notch ligands expressed in osteoclasts using reverse-transcription followed by PCR. […] Of the four, the osteoclast-precursors (bone marrow cells treated with M-CSF but not RANKL) express all of the ligands except DLL4 (FIG. 5C). To assess the role of DLL4 in TcREG (soluble) DLL4-Fc was added to OT-I CD8 T-cells prior to co-culturing with osteoclasts. […] To assess the role of DLL4 in vivo the induction experiments as described in FIG. 1 were performed: GFP negative (polyclonal) CD8 T-cells were purified by cell sorting and transferred into OT-II Rag^−/− mice. Two hours prior to RANKL treatment, DLL4-Fc or a control IgG1-Fc, were injected intravenously into the recipient mice, As described for FIG. 1, RANKL (0.125 mg/kg) was then administered on two consecutive days.
# DLL-4 expression is repressed in the presence of […] and IL-17 but can be de-repressed by RANKL. […]
# IL-17A and TNFα = test: WD-fed ovariectomized WT mice: TcREG and IL-17A/TNFα production by peripheral blood T-cells; type: in vivo; settings: for peripheral blood T-cells that express TNFα and/or IL-17A (flow cytometry) / IL-17A and TNFα produced by freshly isolated peripheral blood cells (ELISA): WD-fed OVX WT mice
# Text: It has been previously shown that low-dose RANKL (IdRANKL) induces TcREG in bone marrow. We postulated that induction of TcREG might be atheroprotective as it protects against osteoporosis in ovariectomized mice. To test that proposal, we first tested the ability of IdRANKL to modulate the systemic availability of proinflammatory cytokines. Thus, a new group of WT mice were fed WD, and subjected to sham or OVX surgeries, then dosed with saline or IdRANKL (two i.p. injections 3 and 7 weeks after OVX). […] We then, measured the ability of freshly isolated T-cells from peripheral blood to produce IL-17A and TNFα. […] Zoledronate is a bisphosphonate that is used clinically to prevent bone resorption (by suppressing osteoclasts). […] Without being limited to any particular theory of operation, we hypothesize that these cells contribute to postmenopausal comorbidities such as atherosclerosis and osteoporosis, and that immunosuppressing therapies such as pulsed IdRANKL will have cardio- and osteo-protective effects.
molecule,measurement,setting,value
"receptor activator of NF-κB ligand (protein, UniProt O35235 139-316, looked up, GST tag) Tumor necrosis factor ligand …: FSGAPAMMEGSWLDVAQRGKPEAQPFAHLTINAASIPSGSHKVTLSSWYHDRGWAKISNMTLSNGKLRVNQDGFYYLYANICFRHHETSGSVPTDYLQLMVYVVKTSIKIPSSHNLMKGGSTKNWSGNSEFHFYSINVGGFFKLRAGEEISIQVSNPSLLDPDQDATYFGAFKVQDID",time a single treatment is effective to limit bone loss / bone resorption,ovariectomized mice; listed as low dose RANKL,approximately 28 days
same,time a single treatment is effective to limit bone loss / bone resorption,ovariectomized mice; listed as low-dose RANKL,up to 30 days
same,restoration of TcREG induction by additional RANKL in the presence of TNFα,[1],restores induction of TcREG; also recorded: the induction of TcREG was also restored
same,peripheral blood T-cells that express TNFα and/or IL-17A (flow cytometry),IL-17A and TNFα,abrogates OVX-induced increase in peripheral blood T-cells that express TNFα and/or IL-17A
same,IL-17A and TNFα produced by freshly isolated peripheral blood cells (ELISA),IL-17A and TNFα; listed as IdRANKL,"abrogated the ability of circulating T-cells to secrete IL-17A, TNFα, or both"
same,peripheral blood T-cells that express TNFα and/or IL-17A (flow cytometry),IL-17A and TNFα; listed as IdRANKL,prevented such increase
same,IL-17A and TNFα produced by freshly isolated peripheral blood cells (ELISA),IL-17A and TNFα; listed as low-dose RANKL,abrogates OVX-induced increase in TNFα and IL-17A expression
same,numbers of CD8+ FoxP3+ cells in the bone marrow,"IL-17A and TNFα; WD-fed WT mice, two i.p. injections 3 and 7 weeks after OVX",increased
